Assay [1] addresses T1, human ENTPD2 (Homo sapiens, UniProt Q9Y5L3).
T1 construct: residues 29-462 of human or cyno ENTPD2 were cloned into expression vector; GP67 signal peptide (N); made in house; host or cells: High Five (Trichoplusia ni) insect cells, baculovirus
T1 sequence (Q9Y5L3 29-462): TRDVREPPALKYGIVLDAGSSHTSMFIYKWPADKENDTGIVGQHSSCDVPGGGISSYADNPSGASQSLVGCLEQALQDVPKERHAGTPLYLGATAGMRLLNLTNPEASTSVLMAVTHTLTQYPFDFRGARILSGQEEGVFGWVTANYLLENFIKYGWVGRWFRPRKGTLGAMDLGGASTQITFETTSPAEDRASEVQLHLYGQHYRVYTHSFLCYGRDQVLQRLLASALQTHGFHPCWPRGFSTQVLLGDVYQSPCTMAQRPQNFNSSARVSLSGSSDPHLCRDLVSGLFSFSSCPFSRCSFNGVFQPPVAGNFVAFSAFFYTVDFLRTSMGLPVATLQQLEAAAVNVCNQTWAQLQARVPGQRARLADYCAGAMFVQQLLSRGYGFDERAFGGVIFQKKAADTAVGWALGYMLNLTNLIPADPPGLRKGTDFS
Kind of assay: Biacore (SPR) affinity to human ENTPD2 ECD. It counts as binding. The note with it: 25° C. The method, then: (§1) Biacore Screening: Affinity was measured by determining the kinetic rate constants using surface plasmon resonance (SPR) on a Biacore T200 or T100 with the T200 sensitivity upgrade instrument (Biacore, GE Healthcare). Antibodies were captured on CM5 sensor chips (Biacore, GE Healthcare) prepared with a mouse anti-human IgG Fc antibody (ThermoFisher catalogue #05-4200) amine coupled to the surface. […] ENTPD2 analytes were allowed to associate for 180 s and dissociate for up to 1800 s depending on the off-rate of the antibody at a flow rate of 30 μL/min. The running buffer was PBS pH 7.2 (prepared from a Corning 10X stock, cat#46-013-CM)+0.05% Tween 20. Regeneration was accomplished with 30 s injections of 3 or 4 M MgCl2 to remove all the captured antibody and remaining complex from the surface, after which fresh antibody was captured. The raw data were analyzed using Biacore T200 Evaluation Software version 1.0 and fit to a 1:1 binding model, with all parameters set to fit globally except for RI, which was set to fit locally.
(In general: SPR reads the build-up and loss of mass on a sensor chip optically.)

In assay [2] the target is cynomologus (cyno) ENTPD2. The assay is described as follows: Biacore (SPR) affinity to cyno ENTPD2 ECD. It counts as binding, cynomolgus monkey. The note with it: 25° C. On the procedure: as §1
Sequence of cynomologus (cyno) ENTPD2 (as listed by the source): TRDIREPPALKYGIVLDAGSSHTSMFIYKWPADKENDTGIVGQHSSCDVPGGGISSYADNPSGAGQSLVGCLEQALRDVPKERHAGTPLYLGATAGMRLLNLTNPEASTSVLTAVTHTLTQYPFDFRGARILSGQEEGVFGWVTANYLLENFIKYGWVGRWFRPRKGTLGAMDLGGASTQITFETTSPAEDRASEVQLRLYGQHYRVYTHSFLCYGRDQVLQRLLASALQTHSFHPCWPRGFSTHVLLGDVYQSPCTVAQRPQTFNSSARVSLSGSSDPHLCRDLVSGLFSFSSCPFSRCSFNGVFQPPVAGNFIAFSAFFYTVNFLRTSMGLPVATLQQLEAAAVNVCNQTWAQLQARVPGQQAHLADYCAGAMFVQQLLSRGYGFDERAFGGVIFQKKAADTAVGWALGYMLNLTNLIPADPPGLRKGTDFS
Assay [3] has as its system NIH/3T3 cells. The assay is described as follows: Cross reactivity: FACS binding to NIH/3T3 control cells. The note with it: 50 nM antibody. On the procedure:
FACS screening: Specific binding of candidate antibodies to endogenously expressed ENTPD2 was assessed by flow cytometry. Cells were rinsed thoroughly with 1×PBS and treated with Accutase (Millipore #SCR005) to lift from growth plates and resuspended at approximately 1×10^5 cells/90 μL in 1× FACS buffer (2% FBS+0.1% NaN3 in PBS). In a 96-well U-bottom plate, 10 μL of 10× antibody solution in FACS buffer was pre-seeded and 90 μL of cell suspension was added. Cell were incubated for 30 minutes at 4° C., washed 1× with cold PBS and resuspended in 100 μL of 1:500 secondary antibody 1× FACS buffer (Allophycocyanin conjugated F(ab′)2 goat anti-human IgG, Fcγ specific; Jackson Immunoresearch, Cat#109-136-098). After additional incubation for 15 min at 4° C., cells were washed twice with PBS and resuspended in 100 μL of 1×FACS buffer with 4 μg/mL propidium iodide (Life Technologies, Cat#P3566). Geometric mean fluorescence intensity was calculated on live single cells using FlowJo software.
Cross reactivity Human ENTPD1 (NP_001767) expressing NIH/3T3 cells were generated using a retroviral transduction approach. 72 hrs post transduction, engineered cells were stained with the anti-Human CD39/ENTPD1 APC-conjugated Antibody (R&D systems, Minneapolis, Minn.) and live cells that expressed human ENTPD1 were separated from the rest of the population via fluorescence activated cell sorting. […]

As a reminder, the Kd is the equilibrium constant for the complex coming apart.

B1: mAb7: humanized anti-human ENTPD2 antibody from mAb17; VH SEQ ID NO: 25, VL SEQ ID NO: 78 (antibody, V domains shown)
VH: QVQLVQSGAEVVKPGASVKISCKASGYTFTDYNMDWVKQAPGQRLEWIGDINPKYDISTYNQQFKGKATITVDKSASTAYMELSSLRSEDTAVYYCARRGFFLYYGINYYYFDVWGQGTLVTVSS
VL: EIVLTQSPATLSASPGEEITLSCSASSSVSYIHWYQQKPGQAPRLLIYSTSNLASGIPARFSGSGSGTFYTLTISSVEPEDAAVYYCHQWSSYPWTFGGGTKLEIK
As for B1, in assay [1], the affinity, expressed as Kd, was 0.9 nM; the ka came to 210000 M⁻¹ s⁻¹; the kd turned out to be 0.00019 s⁻¹. In assay [2], this molecule displayed a Kd of 1.1 nM, a ka of 1.2e+06 M⁻¹ s⁻¹ and a kd of 0.0012 s⁻¹. For the same molecule, the “Apparent FACS binding at 50 nM” value in assay [3] is given as “No binding”.
